Kd and M6P Receptor Column Binding: % Bound data for two molecules are collected here from patent US20100068195A1.

A word on the Kd: it is the equilibrium constant for the complex coming apart. A lower Kd goes with higher affinity.

Assay [1] concerns the target mannose-6-phosphate (M6P) receptor. In words: M6P receptor plate binding assay: plates coated with 4 ug/mL M6P receptor, GALNS 0.16-10 nM, bound enzyme read by 4MU-Gal-6S activity, single-site fit.
The target is the same in assay [2]. Put plainly: M6P receptor affinity column (Affi-Gel 15): 6 ug GALNS loaded, eluted with a mannose-6-phosphate gradient, quantified by GALNS ELISA. (In general: ELISA stands for enzyme-linked immunosorbent assay.)
Assay [3] shares this target. In words: M6P receptor plate binding assay (receptor-coated plate, bound enzyme read by activity).

B1: recombinant human N-acetylgalactosamine-6-sulfatase (GALNS) produced from G71S clone 4 (enzyme)
chain: APQPPNILLLLMDDMGWGDLGVYGEPSRETPNLDRMAAEGLLFPNFYSANPLCSPSRAALLTGRLPIRNGFYTTNAHARNAYTPQEIVGGIPDSEQLLPELLKKAGYVSKIVGKWHLGHRPQFHPLKHGFDEWFGSPNCHFGPYDNKARPNIPVYRDWEMVGRYYEEFPINLKTGEANLTQIYLQEALDFIKRQARHHPFFLYWAVDATHAPVYASKPFLGTSQRGRYGDAVREIDDSIGKILELLQDLHVADNTFVFFTSDNGAALISAPEQGGSNGPFLCGKQTTFEGGMREPALAWWPGHVTAGQVSHQLGSIMDLFTTSLALAGLTPPSDRAIDGLNLLPTLLQGRLMDRPIFYYRGDTLMAATLGQHKAHFWTWTNSWENFRQGIDFCPGQNVSGVTTHNLEDHTKLPLIFHLGRDPGERFPLSFASAEYQEALSRITSVVQQHQEALVPAQPQLNVCNWAVMNWAPPGCEKLGKCLTPPESIPKKCLWSH
modifications: Cys at position 53 of the precursor (position 79 of SEQ ID NO:4) converted to Calpha-formylglycine (FGly), about 90%; N-linked glycans at Asn178 (bis-phosphorylated mannose 7, BPM7) and Asn397 (oligomannose-type), numbered on the secreted polypeptide
Take B1: in assay [1], the dissociation constant (Kd) was 2.4 nM. In addition, the M6P Receptor Column Binding: % Bound in assay [2] is 56%.

B2: recombinant human N-acetylgalactosamine-6-sulfatase (GALNS) produced from G71S clone C2 (enzyme)
chain: B1 chain
modifications: active site Cys at position 53 of the precursor (position 79 of SEQ ID NO:4) converted to Calpha-formylglycine (percent not printed for this clone); N-linked glycans at Asn178 and Asn397, bis-phosphorylated oligomannose 0.69 mol/mol
In assay [3], B2 registered a dissociation constant (Kd) of 5.7 nM.
